For one assay, the target named is T1, GAL/STAMP(N834) (human).
T1 construct: domain: GAL-DBD; Mammalian two-hybrid construct; also called GAL/N834
Description: mammalian two-hybrid ±1 µM Dex (FIG. 6B).

Another assay addresses T2, GAL/STAMP(623-834) (human).
T2 construct: domain: GAL-DBD; Expressed in CV-1 cells for the mammalian two-hybrid assay; also called Gal/6-6CL1
The experiment in a line: mammalian two-hybrid in CV-1 cells.

For the next assay, the target named is T3, GAL/STAMP(834C) (human, UniProt P04386 1-147 (Saccharomyces cerevisiae entry)).
T3 construct: domain: GAL-DBD; Mammalian two-hybrid construct; also called GAL fused to STAMP834C
Description: mammalian two-hybrid (data not shown).

The target in assay [1] is transcription intermediary factor-2 (TIF2), full length (human, UniProt Q15596 1-1464). Description: cell-based or functional assay.
The target of assay [2] is T4, STAMP C-terminal fragment (834C), in vitro translated (human, UniProt Q6EMB2 838-1281, [35S]methionine labeled).
T4 sequence: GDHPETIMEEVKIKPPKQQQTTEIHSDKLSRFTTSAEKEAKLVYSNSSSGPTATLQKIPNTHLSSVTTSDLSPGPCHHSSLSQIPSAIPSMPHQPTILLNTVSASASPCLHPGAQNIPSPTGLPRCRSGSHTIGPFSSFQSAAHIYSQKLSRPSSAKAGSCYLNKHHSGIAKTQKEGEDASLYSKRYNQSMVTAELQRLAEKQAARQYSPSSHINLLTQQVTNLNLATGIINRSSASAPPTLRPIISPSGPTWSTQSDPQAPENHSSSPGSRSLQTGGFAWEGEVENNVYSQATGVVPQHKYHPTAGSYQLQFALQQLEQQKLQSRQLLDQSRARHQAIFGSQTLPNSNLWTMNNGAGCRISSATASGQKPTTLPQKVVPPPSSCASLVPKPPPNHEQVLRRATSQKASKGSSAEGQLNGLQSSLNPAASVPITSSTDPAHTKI
Description: GST pulldown, autoradiography (FIG. 7A).
Description: (§1) The mixture was centrifuged (12,000×g), the supernatant was discarded, and the pellet was washed with phosphate-buffered saline (3×1 ml). Each 20-μl sample of immobilized GST or GST-chimera was then incubated overnight with 10 μl of ³⁵S-labeled in vitro translation product. The matrix was washed with phosphate-buffered saline (4×1 ml). The immobilized proteins were removed from the beads by heating at 90° C. for 5 min in 20 μl of 2×SDS loading buffer. The proteins were separated on 8-10% SDS-PAGE gels and detected by radio-autoradiography.

Assay [3] has as its target T5, STAMP amino terminal fragment (N623), in vitro translated (human, UniProt Q6EMB2 5-627, [35S]methionine labeled).
T5 sequence: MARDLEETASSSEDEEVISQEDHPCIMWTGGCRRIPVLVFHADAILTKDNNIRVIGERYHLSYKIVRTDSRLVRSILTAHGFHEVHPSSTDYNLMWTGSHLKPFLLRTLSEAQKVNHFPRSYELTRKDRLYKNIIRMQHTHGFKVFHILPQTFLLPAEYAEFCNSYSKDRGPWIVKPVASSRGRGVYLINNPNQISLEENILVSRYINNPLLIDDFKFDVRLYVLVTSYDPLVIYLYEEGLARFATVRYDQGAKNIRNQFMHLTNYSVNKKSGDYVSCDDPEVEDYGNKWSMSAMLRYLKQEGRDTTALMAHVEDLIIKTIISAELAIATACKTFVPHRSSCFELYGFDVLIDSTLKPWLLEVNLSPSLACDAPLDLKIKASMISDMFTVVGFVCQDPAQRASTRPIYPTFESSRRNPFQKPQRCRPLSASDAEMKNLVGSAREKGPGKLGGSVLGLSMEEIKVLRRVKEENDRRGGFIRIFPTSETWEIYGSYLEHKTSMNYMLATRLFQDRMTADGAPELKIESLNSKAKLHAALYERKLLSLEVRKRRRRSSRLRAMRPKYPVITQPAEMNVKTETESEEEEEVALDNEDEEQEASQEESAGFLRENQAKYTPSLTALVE
Description: GST pulldown, autoradiography (FIG. 7A).
Description: as §1

B1: VP16/GR (receptor)
chain: MDSKESLAPPGRDEVPGSLLGQGRGSVMDFYKSLRGGATVKVSASSPSVAAASQADSKQQRILLDFSKGSTSNVQQRQQQQQQQQQQQQQQQQQQQPDLSKAVSLSMGLYMGETETKVMGNDLGYPQQGQLGLSSGETDFRLLEESIANLNRSTSVPENPKSSTSATGCATPTEKEFPKTHSDASSEQQNRKSQTGTNGGSVKLYPTDQSTFDLLKDLEFSAGSPSKDTNESPWRSDLLIDENLLSPLAGEDDPFLLEGNTNEDCKPLILPDTKPKIKDTGDTILSSPSSVALPQVKTEKDDFIELCTPGVIKQEKLGPVYCQASFSGTNIIGNKMSAISVHGVSTSGGQMYHYDMNTASLSQQQDQKPVFNVIPPIPVGSENWNRCQGSGEDSLTSLGALNFPGRSVFSNGYSSPGMRPDVSSPPSSSSAATGPPPKLCLVCSDEASGCHYGVLTCGSCKVFFKRAVEGQHNYLCAGRNDCIIDKIRRKNCPACRYRKCLQAGMNLEARKTKKKIKGIQQATAGVSQDTSENPNKTIVPAALPQLTPTLVSLLEVIEPEVLYAGYDSSVPDSAWRIMTTLNMLGGRQVIAAVKWAKAILGLRNLHLDDQMTLLQYSWMFLMAFALGWRSYRQSSGNLLCFAPDLIINEQRMSLPCMYDQCKHMLFVSSELQRLQVSYEEYLCMKTLLLLSSVPKEGLKSQELFDEIRMTYIKELGKAIVKREGNSSQNWQRFYQLTKLLDSMHEVVENLLTYCFQTFLDKTMSIEFPEMLAEIITNQIPKYSNGNIKKLLFHQK
notes: Assayed with and without 1 µM Dex
Regarding B1, the binding result in the assay with GAL/STAMP(N834) is “no binding”.

B2: VP16/TIF2(1140C) (other)
chain: QAQMAQGSYSPMQDPNFHTMGQRPSYATLRMQPRPGLRPTGLVQNQPNQLRLQLQHRLQAQQNRQPLMNQISNVSNVNLTLRPGVPTQAPINAQMLAQRQREILNQHLRQRQMHQQQQVQQRTLMMRGQGLNMTPSMVAPSGMPATMSNPRIPQANAQQFPFPPNYGISQQPDPGFTGATTPQSPLMSPRMAHTQSPMMQQSQANPAYQAPSDINGWAQGNMGGNSMFSQQSPPHFGQQANTSMYSNNMNINVSMATNTGGMSSMNQMTGQISMTSVTSVPTSGLSSMGPEQVNDPALRGGNLFPNQLPGMDMIKQEGDTTRKYC
For B2, in the assay with GAL/STAMP(623-834), the binding result is given as “no binding”.

B3: GR N-terminal half (N523) (receptor, UniProt P06536 1-523, looked up, not shown: large carriers)
chain: MDSKESLAPPGRDEVPGSLLGQGRGSVMDFYKSLRGGATVKVSASSPSVAAASQADSKQQRILLDFSKGSTSNVQQRQQQQQQQQQQQQQQQQQQQPDLSKAVSLSMGLYMGETETKVMGNDLGYPQQGQLGLSSGETDFRLLEESIANLNRSTSVPENPKSSTSATGCATPTEKEFPKTHSDASSEQQNRKSQTGTNGGSVKLYPTDQSTFDLLKDLEFSAGSPSKDTNESPWRSDLLIDENLLSPLAGEDDPFLLEGNTNEDCKPLILPDTKPKIKDTGDTILSSPSSVALPQVKTEKDDFIELCTPGVIKQEKLGPVYCQASFSGTNIIGNKMSAISVHGVSTSGGQMYHYDMNTASLSQQQDQKPVFNVIPPIPVGSENWNRCQGSGEDSLTSLGALNFPGRSVFSNGYSSPGMRPDVSSPPSSSSAATGPPPKLCLVCSDEASGCHYGVLTCGSCKVFFKRAVEGQHNYLCAGRNDCIIDKIRRKNCPACRYRKCLQAGMNLEARKTKKKIKGIQQAT
notes: domain: N-terminal half (N523)
Take B3: the binding result in the assay with GAL/STAMP(834C) is on record as “no binding”.

B4: full length STAMP (SRC-1 and TIF2 Associated Modulatory Protein) (other)
chain: MARDLEETASSSEDEEVISQEDHPCIMWTGGCRRIPVLVFHADAILTKDNNIRVIGERYHLSYKIVRTDSRLVRSILTAHGFHEVHPSSTDYNLMWTGSHLKPFLLRTLSEAQKVNHFPRSYELTRKDRLYKNIIRMQHTHGFKVFHILPQTFLLPAEYAEFCNSYSKDRGPWIVKPVASSRGRGVYLINNPNQISLEENILVSRYINNPLLIDDFKFDVRLYVLVTSYDPLVIYLYEEGLARFATVRYDQGAKNIRNQFMHLTNYSVNKKSGDYVSCDDPEVEDYGNKWSMSAMLRYLKQEGRDTTALMAHVEDLIIKTIISAELAIATACKTFVPHRSSCFELYGFDVLIDSTLKPWLLEVNLSPSLACDAPLDLKIKASMISDMFTVVGFVCQDPAQRASTRPIYPTFESSRRNPFQKPQRCRPLSASDAEMKNLVGSAREKGPGKLGGSVLGLSMEEIKVLRRVKEENDRRGGFIRIFPTSETWEIYGSYLEHKTSMNYMLATRLFQDRMTADGAPELKIESLNSKAKLHAALYERKLLSLEVRKRRRRSSRLRAMRPKYPVITQPAEMNVKTETESEEEEEVALDNEDEEQEASQEESAGFLRENQAKYTPSLTALVENTPKENSMKVREWNNKGGHCCKLETQELEPKFNLMQILQDNGNLSKMQARIAFSAYLQHVQIRLMKDSGGQTFSASWAAKEDEQMELVVRFLKRASNNLQHSLRMVLPSRRLALLERRRILAHQLGDFIIVYNKETEQMAEKKSKKKVEEEEEDGVNMENFQEFIRQASEAELEEVLTFYTQKNKSASVFLGTHSKISKNNNNYSDSGAKGDHPETIMEEVKIKPPKQQQTTEIHSDKLSRFTTSAEKEAKLVYSNSSSGPTATLQKIPNTHLSSVTTSDLSPGPCHHSSLSQIPSAIPSMPHQPTILLNTVSASASPCLHPGAQNIPSPTGLPRCRSGSHTIGPFSSFQSAAHIYSQKLSRPSSAKAGSCYLNKHHSGIAKTQKEGEDASLYSKRYNQSMVTAELQRLAEKQAARQYSPSSHINLLTQQVTNLNLATGIINRSSASAPPTLRPIISPSGPTWSTQSDPQAPENHSSSPGSRSLQTGGFAWEGEVENNVYSQATGVVPQHKYHPTAGSYQLQFALQQLEQQKLQSRQLLDQSRARHQAIFGSQTLPNSNLWTMNNGAGCRISSATASGQKPTTLPQKVVPPPSSCASLVPKPPPNHEQVLRRATSQKASKGSSAEGQLNGLQSSLNPAASVPITSSTDPAHTKI
As to B4, in assay [1], the “fold repression by Dex of the PMA-induced AP-1/Luc reporter in U2OS.rGR cells (STAMP added, no TIF2 added)” value stood at 16 fold and the “fold repression by Dex of the PMA-induced AP-1/Luc reporter in U2OS.rGR cells (STAMP plus TIF2 added)” value was about 31 fold.

B5: GST/TIF2.4 (other)
chain: ERADGQSRLHDSKGQTKLLQLLTTKSDQMEPSPLASSLSDTNKDSTGSLPGSGSTHGTSLKEKHKILHRLLQDSSSPVDLAKLTAEATGKDLSQESSSTAPGSEVTIKQEPVSPKKKENALLRYLLDKDDTKDIGLPEITPKLERLDSKTDPASNTKLIAMKTEKEEMSFEPGDQPGSELDNLEEILDDLQNSQLPQLFPDTRPGAPAGSVDKQAIINDLMQLTAENSPVTPVGAQKTALRISQSTFNNPRPGQLGRLLPNQNLPLDITLQSPTGAGPFPPIRNSSPYSVIPQPGMMGNQGMIGNQGNLGNSSTGMIGNSASRPTMPSGEWAPQSSAVRVTCAATTSAMNRPVQGGMIRNPAASIPMRPSSQPGQRQTLQSQVMNIG
notes: Bacterially expressed, immobilized on glutathione-Sepharose beads; The text gives no limits for TIF2.4, so the whole TIF2 entry is named; not shown: glutathione S-transferase (GST) of a pGEX plasmid
As for B5, the binding result in assay [2] and in assay [3] was “no binding” in each case.

B6: GR C-terminal half (407C) (receptor, UniProt P06536 407-795, looked up, not shown: large carriers)
chain: SVFSNGYSSPGMRPDVSSPPSSSSAATGPPPKLCLVCSDEASGCHYGVLTCGSCKVFFKRAVEGQHNYLCAGRNDCIIDKIRRKNCPACRYRKCLQAGMNLEARKTKKKIKGIQQATAGVSQDTSENPNKTIVPAALPQLTPTLVSLLEVIEPEVLYAGYDSSVPDSAWRIMTTLNMLGGRQVIAAVKWAKAILGLRNLHLDDQMTLLQYSWMFLMAFALGWRSYRQSSGNLLCFAPDLIINEQRMSLPCMYDQCKHMLFVSSELQRLQVSYEEYLCMKTLLLLSSVPKEGLKSQELFDEIRMTYIKELGKAIVKREGNSSQNWQRFYQLTKLLDSMHEVVENLLTYCFQTFLDKTMSIEFPEMLAEIITNQIPKYSNGNIKKLLFHQK
notes: also called GR407C
For the molecule B6, the binding result in the assay with GAL/STAMP(834C) is “no binding”.

Source of the values: patent publication US20070128627A1 (US Dept. of Health and Human Services, published 2007).
